Where a chain is given by its changes, count along the chain named.
T1: FcgRIIb (human, UniProt P31994)
T1 chain: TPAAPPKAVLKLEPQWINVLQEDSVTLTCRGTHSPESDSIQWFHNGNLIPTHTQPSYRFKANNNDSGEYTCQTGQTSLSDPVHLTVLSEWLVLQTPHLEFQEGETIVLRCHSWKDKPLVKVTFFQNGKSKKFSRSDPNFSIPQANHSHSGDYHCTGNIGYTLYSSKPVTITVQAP

T2: FcgRIIa R (human, UniProt P12318)
T2 chain: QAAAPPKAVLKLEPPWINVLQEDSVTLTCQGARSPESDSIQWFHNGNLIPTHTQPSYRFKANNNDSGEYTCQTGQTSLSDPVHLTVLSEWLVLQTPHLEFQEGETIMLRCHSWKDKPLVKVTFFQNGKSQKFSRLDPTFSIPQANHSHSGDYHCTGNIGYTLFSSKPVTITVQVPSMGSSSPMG

T3: FcgRIIa H (human, UniProt P12318)
T3 chain: T2 chain with R134H

T4: FcgRIa (human, UniProt P12314)
T4 chain: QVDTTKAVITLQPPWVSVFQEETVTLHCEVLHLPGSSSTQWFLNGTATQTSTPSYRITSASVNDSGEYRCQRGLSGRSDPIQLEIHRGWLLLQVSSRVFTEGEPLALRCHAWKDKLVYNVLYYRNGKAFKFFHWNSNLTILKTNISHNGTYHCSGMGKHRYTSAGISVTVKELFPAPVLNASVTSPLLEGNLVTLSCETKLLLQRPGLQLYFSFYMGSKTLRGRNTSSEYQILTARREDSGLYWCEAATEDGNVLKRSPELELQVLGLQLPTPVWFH

B1: H240-Kn233/H240-Hl068/L73-k0 (antibody)
chain 1: QDQLVQSGAEVKKPGASVKVSCKASGFNIKDTYIQWVRQAPGQGLEWMGRIDPLRKQTKYREKFEGRVTITADTSTNTAYMELSSLRSEDTAVYYCVRSGREFDYWGQGTLVTVSSASTKGPSVFPLAPSSKSTSGGTAALGCLVKDYFPEPVTVSWNSGALTSGVHTFPAVLQSSGLYSLSSVVTVPSSSLGTQTYICNVNHKPSNTKVDKKVEPKSCDKTHTCPPCPAPEEYWGPIVFLFPPKPKDTLMISRTPEVTCVVVDVSDEDPEVKFNWYVDGVEVHNAKTKPREEQYNATYRVVSVLTVLHQDWLNGKEYKCKVSNKDLPAPIEKTISKAKGQPREPQVCTLPPSRDELTKNQVSLWCLVKGFYPSDIAVEWESNGQPENNYKTTPPVLDSDGSFFLYSKLTVDKSRWQQGNVFSCSVMHEALHNHYTQKSLSLSP
chain 2: QDQLVQSGAEVKKPGASVKVSCKASGFNIKDTYIQWVRQAPGQGLEWMGRIDPLRKQTKYREKFEGRVTITADTSTNTAYMELSSLRSEDTAVYYCVRSGREFDYWGQGTLVTVSSASTKGPSVFPLAPSSKSTSGGTAALGCLVKDYFPEPVTVSWNSGALTSGVHTFPAVLQSSGLYSLSSVVTVPSSSLGTQTYICNVNHKPSNTKVDKKVEPKSCDKTHTCPPCPAPELLGGPSVFLFPPKPKDTLMISRTPEVTCVVVDVSHEEPEVKFNWYVDGVEVHNAKTKPREEQYNSTYRVVSVLTVLHQDWLNGKEYKCKVSNDALPKPIEETISKAKGQPREPQVYTLPPSRCELTKNQVSLSCAVKGFYPSDIAVEWESNGQPENNYKTTPPVLDSDGSFFLVSKLTVDKSRWQQGNVFSCSVMHEALHNHYTQKSLSLSP
chain 3: DIQMTQSPSSLSASVGDRVTITCRASQDIHKYIAWYQQKPGQAPRLLIQYTSTLQPGVPSRFSGSGSGTDYTFTISSLQPEDIATYYCLQYEQLRTFGGGTKVEIKRTVAAPSVFIFPPSDEQLKSGTASVVCLLNNFYPREAKVQWKVDNALQSGNSQESVTEQDSKDSTYSLSSTLTLSKADYEKHKVYACEVTHQGLSSPVTKSFNRGEC
B2: H240-Kn202/H240-Hl068/L73-k0 (antibody)
chain 1: B1 chain 1 with Y234Q, I238M, D269E, D326A
chain 2: B1 chain 2
chain 3: B1 chain 3
B3: H240-Kn231/H240-Hl068/L73-k0 (antibody)
chain 1: B1 chain 1 with E233I
chain 2: B1 chain 2
chain 3: B1 chain 3
B4: H240-Kn228/H240-Hl214/L73-k0 (antibody)
chain 1: B1 chain 1 with E233D, Y234Q, D269E, D326A
chain 2: B1 chain 2 with K329F
chain 3: B1 chain 3
B5: H240-Kn226/H240-Hl214/L73-k0 (antibody)
chain 1: B1 chain 1 with E233F, Y234Q, D269E, D326A
chain 2: B1 chain 2 with K329F
chain 3: B1 chain 3
B6: H240-Kn202/H240-Hl210/L73-k0 (antibody)
chain 1: B1 chain 1 with Y234Q, I238M, D269E, D326A
chain 2: B1 chain 2 with K329A
chain 3: B1 chain 3
B7: H240-Kn203/H240-Hl210/L73-k0 (antibody)
chain 1: B1 chain 1 with E233F, I238M
chain 2: B1 chain 2 with K329A
chain 3: B1 chain 3
B8: H240-Kn235/H240-Hl068/L73-k0 (antibody)
chain 1: B1 chain 1 with E233F
chain 2: B1 chain 2
chain 3: B1 chain 3
B9: H240-Kn228/H240-Hl210/L73-k0 (antibody)
chain 1: B1 chain 1 with E233D, Y234Q, D269E, D326A
chain 2: B1 chain 2 with K329A
chain 3: B1 chain 3
B10: H240-Kn198/H240-Hl210/L73-k0 (antibody)
chain 1: B1 chain 1 with E233L, Y234Q, I238M, D269E, D326A
chain 2: B1 chain 2 with K329A
chain 3: B1 chain 3
B11: H240-Kn232/H240-Hl068/L73-k0 (antibody)
chain 1: B1 chain 1 with E233L
chain 2: B1 chain 2
chain 3: B1 chain 3
B12: H240-Kn200/H240-Hl068/L73-k0 (antibody)
chain 1: B1 chain 1 with E233S, Y234Q, I238M, D269E, D326A
chain 2: B1 chain 2
chain 3: B1 chain 3
B13: H240-Kn201/H240-Hl068/L73-k0 (antibody)
chain 1: B1 chain 1 with E233F, Y234Q, I238M, D269E, D326A
chain 2: B1 chain 2
chain 3: B1 chain 3
B14: H240-Kn208/H240-Hl214/L73-k0 (antibody)
chain 1: B1 chain 1 with E233D, Y234Q, I238M, D269E, D326A
chain 2: B1 chain 2 with K329F
chain 3: B1 chain 3
B15: H240-Kn200/H240-Hl210/L73-k0 (antibody)
chain 1: B1 chain 1 with E233S, Y234Q, I238M, D269E, D326A
chain 2: B1 chain 2 with K329A
chain 3: B1 chain 3
B16: H240-Kn227/H240-Hl210/L73-k0 (antibody)
chain 1: B1 chain 1 with Y234Q, D269E, D326A
chain 2: B1 chain 2 with K329A
chain 3: B1 chain 3

Target: T1, FcgRIIb
Experiment: SPR

Compared with B1, B2 is 6.7-fold higher in Kd: 210 nM for the first, 1400 nM for the second. The first binds more tightly here.

Going from B3 to B4, the Kd rises from 120 nM to 2300 nM (19-fold).

First: B5
Second: B6
The Kd of the first is 1.5-fold higher: 3400 nM for the first, 2200 nM for the second.

B7 and B8 are within 1.5-fold of each other in Kd: 300 nM for the first, 220 nM for the second.

Going from B9 to B10, the Kd rises from 1700 nM to 3100 nM (1.8-fold). The first binds more tightly here.

First: B11
Second: B12
The Kd of the first is 15-fold lower: 190 nM for the first, 2800 nM for the second. The first binds more tightly here.

B13 and B14 are within 1.5-fold of each other in Kd: 3900 nM for the first, 4500 nM for the second.

B15 and B16 are within 1.5-fold of each other in Kd: 2600 nM for the first, 2500 nM for the second.

Target: T2, FcgRIIa R
Experiment: SPR

Going from B1 to B2, the Kd rises from 21 nM to 200 nM (9.5-fold). The first binds more tightly here.

Compared with B3, B4 is 36-fold higher in Kd: 8.9 nM for the first, 320 nM for the second. The first binds more tightly here.

B5 and B6 are within 1.5-fold of each other in Kd: 360 nM for the first, 320 nM for the second.

First: B7
Second: B8
The Kd of the first is 2.4-fold higher: 56 nM for the first, 23 nM for the second.

Compared with B9, B10 is 2.4-fold higher in Kd: 200 nM for the first, 480 nM for the second. The first binds more tightly here.

Compared with B11, B12 is 16-fold higher in Kd: 17 nM for the first, 280 nM for the second.

First: B13
Second: B14
The Kd of the first is 2-fold lower: 360 nM for the first, 720 nM for the second. The first binds more tightly here.

Compared with B15, B16 is 1.8-fold lower in Kd: 480 nM for the first, 260 nM for the second.

Target: FcgRIIIa V (human, UniProt P08637)
Experiment: SPR

Chain of FcgRIIIa V (P08637 17-208 F176V): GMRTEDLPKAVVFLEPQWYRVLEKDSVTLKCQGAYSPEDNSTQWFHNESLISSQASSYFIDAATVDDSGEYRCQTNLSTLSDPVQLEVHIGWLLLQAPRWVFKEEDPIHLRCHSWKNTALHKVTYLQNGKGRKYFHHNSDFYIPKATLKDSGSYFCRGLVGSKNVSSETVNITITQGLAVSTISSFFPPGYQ

B1 and B2 are within 1.5-fold of each other in Kd: 0.75 nM for the first, 0.66 nM for the second.

B3 and B4 are within 1.5-fold of each other in Kd: 0.73 nM for the first, 0.77 nM for the second.

B5 and B6 are within 1.5-fold of each other in Kd: 0.77 nM for the first, 0.53 nM for the second.

Compared with B7, B8 is 1.9-fold higher in Kd: 0.45 nM for the first, 0.87 nM for the second.

B9 and B10 are within 1.5-fold of each other in Kd: 0.81 nM for the first, 1 nM for the second.

B11 and B12 are within 1.5-fold of each other in Kd: 0.86 nM for the first, 1.2 nM for the second.

B13 and B14 are within 1.5-fold of each other in Kd: 1.2 nM for the first, 0.9 nM for the second.

B15 and B16 are within 1.5-fold of each other in Kd: 1.2 nM for the first, 0.91 nM for the second.

Target: T3, FcgRIIa H
Experiment: SPR

Going from B1 to B2, the Kd rises from 66 nM to 120 nM (1.8-fold). The first binds more tightly here.

First: B3
Second: B4
The Kd of the first is 17-fold lower: 16 nM for the first, 270 nM for the second.

B5 and B6 are within 1.5-fold of each other in Kd: 160 nM for the first, 230 nM for the second.

Compared with B7, B8 is 2.5-fold lower in Kd: 93 nM for the first, 37 nM for the second.

First: B9
Second: B10
The Kd of the first is 1.6-fold higher: 190 nM for the first, 120 nM for the second.

First: B11
Second: B12
The Kd of the first is 2.8-fold lower: 25 nM for the first, 69 nM for the second. The first binds more tightly here.

First: B13
Second: B14
The Kd of the first is 7.5-fold lower: 56 nM for the first, 420 nM for the second.

B15 and B16 are within 1.5-fold of each other in Kd: 170 nM for the first, 230 nM for the second.

Target: FcgRIIIa F (human, UniProt P08637)
Experiment: SPR

Chain of FcgRIIIa F (P08637 17-208): as the sequence (P08637 17-208 F176V) above, with V160F counted along it

B1 and B2 are the same in Kd: 2.5 nM for the first, 2.5 nM for the second.

Going from B3 to B4, the Kd falls from 2.9 nM to 1.9 nM (1.5-fold). The second binds more tightly here.

First: B5
Second: B6
The Kd of the first is 1.7-fold lower: 1.9 nM for the first, 3.3 nM for the second. The first binds more tightly here.

B7 and B8 are within 1.5-fold of each other in Kd: 3 nM for the first, 2.7 nM for the second.

B9 and B10 are within 1.5-fold of each other in Kd: 4.4 nM for the first, 4.9 nM for the second.

Compared with B11, B12 is 1.5-fold higher in Kd: 3 nM for the first, 4.6 nM for the second.

First: B13
Second: B14
The Kd of the first is 1.8-fold higher: 5.3 nM for the first, 3 nM for the second.

B15 and B16 are within 1.5-fold of each other in Kd: 5.7 nM for the first, 4.4 nM for the second.

Target: T4, FcgRIa
Experiment: SPR

Compared with B1, B2 is 2.2-fold higher in Kd: 0.18 nM for the first, 0.4 nM for the second.

Going from B3 to B4, the Kd falls from 0.18 nM to 0.12 nM (1.5-fold). The second binds more tightly here.

Going from B5 to B6, the Kd rises from 0.089 nM to 0.17 nM (1.9-fold). The first binds more tightly here.

B7 and B8 are within 1.5-fold of each other in Kd: 0.16 nM for the first, 0.15 nM for the second.

Going from B9 to B10, the Kd falls from 0.16 nM to 0.047 nM (3.4-fold).

First: B11
Second: B12
The Kd of the first is 2.2-fold lower: 0.23 nM for the first, 0.5 nM for the second.

Going from B13 to B14, the Kd falls from 0.26 nM to 0.053 nM (4.9-fold).

B15 and B16 are within 1.5-fold of each other in Kd: 0.18 nM for the first, 0.17 nM for the second.
